Tests used:
Test in all cases: cell-based or functional assay
MMP13 = MMP13 (human, UniProt P45452 104-471, limits assumed)
ADAMTS4 = target: T1, ADAMTS4 (human, UniProt O75173 213-685, limits assumed)
T1 sequence (looked up): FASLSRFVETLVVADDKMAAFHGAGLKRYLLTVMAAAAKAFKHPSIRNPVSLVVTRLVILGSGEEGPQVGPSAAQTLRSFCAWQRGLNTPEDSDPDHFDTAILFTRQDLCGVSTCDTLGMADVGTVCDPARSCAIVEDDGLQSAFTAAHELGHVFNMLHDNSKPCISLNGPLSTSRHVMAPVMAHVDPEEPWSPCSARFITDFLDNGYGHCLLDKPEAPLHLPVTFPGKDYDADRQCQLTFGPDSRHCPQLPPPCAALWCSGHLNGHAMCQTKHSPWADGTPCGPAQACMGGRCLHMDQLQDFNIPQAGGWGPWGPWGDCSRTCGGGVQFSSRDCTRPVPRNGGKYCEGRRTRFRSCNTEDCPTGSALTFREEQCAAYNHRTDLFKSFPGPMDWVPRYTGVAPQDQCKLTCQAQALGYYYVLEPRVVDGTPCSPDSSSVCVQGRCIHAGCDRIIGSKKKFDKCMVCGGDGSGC

ADAMTS5 = target: T2, ADAMTS5 (human, UniProt Q9UNA0 262-622, limits assumed)
T2 sequence (looked up): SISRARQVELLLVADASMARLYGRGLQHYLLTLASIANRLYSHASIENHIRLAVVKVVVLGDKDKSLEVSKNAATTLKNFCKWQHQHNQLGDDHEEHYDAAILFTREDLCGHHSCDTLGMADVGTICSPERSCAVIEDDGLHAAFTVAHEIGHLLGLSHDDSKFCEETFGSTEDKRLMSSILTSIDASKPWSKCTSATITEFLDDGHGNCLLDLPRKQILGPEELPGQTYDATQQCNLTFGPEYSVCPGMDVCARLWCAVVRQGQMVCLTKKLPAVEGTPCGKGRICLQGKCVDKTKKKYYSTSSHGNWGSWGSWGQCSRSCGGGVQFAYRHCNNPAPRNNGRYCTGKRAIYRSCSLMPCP

B1: Variant A2M, bait region SEQ ID NO 85 (other)
chain: SVSGKPQYMVLVPSLLHTETTEKGCVLLSYLNETVTVSASLESVRGNRSLFTDLEAENDVLHCVAFAVPKSSSNEEVMFLTVQVKGPTQEFKKRTTVMVKNEDSLVFVQTDKSIYKPGQTVKFRVVSMDENFHPLNELIPLVYIQDPKGNRIAQWQSFQLEGGLKQFSFPLSSEPFQGSYKVVVQKKSGGRTEHPFTVEEFVLPKFEVQVTVPKIITILEEEMNVSVCGLYTYGKPVPGHVTVSICRKYSDASDCHGEDSQAFCEKFSGQLNSHGCFYQQVKTKVFQLKRKEYEMKLHTEAQIQEEGTVVELTGRQSSEITRTITKLSFVKVDSHFRQGIPFFGQVRLVDGKGVPIPNKVIFIRGNEANYYSNATTDEHGLVQFSINTTNVMGTSLTVRVNYKDRSPCYGYQWVSEEHEEAHHTAYLVFSPSKSFVHLEPMSHELPCGHTQTVQAHYILNGGTLLGLKKLSFYYLIMAKGGIVRTGTHGLLVKQEDMKGHFSISIPVKSDIAPVARLLIYAVLPTGDVIGDSAKYDVENCLANKVDLSFSPSQSLPASHAHLRVTAAPQSVCALRAVDQSVLLMKPDAELSASSVYNLLPEKDLTGFPGPLNDQDDEDCINRHNVYINGITYTPVSSTNEKDMYSFLEDMGLKAFTNSKIRKPKMCPQLEQYEMHGPEGLRVGIPENFFGVSELEGRGSKEEEGLGSKLRKYFPETWIWDLVVVNSAGVAEVGVTVPDTITEWKAGAFCLSEDAGLGISSTASLRAFQPFFVELTMPYSVIRGEAFTLKATVLNYLPKCIRVSVQLEASPAFLAVPVEKEQAPHCICANGRQTVSWAVTPKSLGNVNFTVSAEALESQELCGTEVPSVPEHGRKDTVIKPLLVEPEGLEKETTFNSLLCPSGGEVSEELSLKLPPNVVEESARASVSVLGDILGSAMQNTQNLLQMPYGCGEQNMVLFAPNIYVLDYLNETQQLTPEIKSKAIGYLNTGYQRQLNYKHYDGSYSTFGERYGRNQGNTWLTAFVLKTFAQARAYIFIDEAHITQALIWLSQRQKDNGCFRSSGSLLNNAIKGGVEDEVTLSAYITIALLEIPLTVTHPVVRNALFCLESAWKTAQEGDHGSHVYTKALLAYAFALAGNQDKRKEVLKSLNEEAVKKDNSVHWERPQKPKAPVGHFYEPQAPSAEVEMTSYVLLAYLTAQPAPTSEDLTSATNIVKWITKQQNAQGGFSSTQDTVVALHALSKYGAATFTRTGKAAQVTIQSSGTFSSKFQVDNNNRLLLQQVSLPELPGEYSMKVTGEGCVYLQTSLKYNILPEKEEFPFALGVQTLPQTCDEPKAHTSFQISLSVSYTGSRSASNMAIVDVKMVSGFIPLKPTVKMLERSNHVSRTEVSSNHVLIYLDKVSNQTLSLFFTVLQDVPVRDLKPAIVKVYDYYETDEFAIAEYNAPCSKDLGNADYKDDDDKGASHHHHHH
Protease Inhibition (% of WT) (MMP13): 170 % of WT
Protease Inhibition (% of WT) (ADAMTS4): 78 % of WT
Protease Inhibition (% of WT) (ADAMTS5): 174 % of WT

From US20230250154A1 (CYTONICS, published 2023)
